The text below walks through data of publication PMC5384083.

B1: T7 tagged FoxM1 wild type (WT) [not stated] / Retinoblastoma protein (Rb), endogenous [human (endogenous in MCF7 and MDA-MB-453)] (parent)
chain 1: MKTSPRRPLILKRRRLPLPVQNAPSETSEEEPKRSPAQQESNQAEASKEVAESNSCKFPAGIKIINHPTMPNTQVVAIPNNANIHSIITALTAKGKESGSSGPNKFILISCGGAPTQPPGLRPQTQTSYDAKRTEVTLETLGPKPAARDVNLPRPPGALCEQKRETCADGEAAGCTINNSLSNIQWLRKMSSDGLGSRSIKQEMEEKENCHLEQRQVKVEEPSRPSASWQNSVSERPPYSYMAMIQFAINSTERKRMTLKDIYTWIEDHFPYFKHIAKPGWKNSIRHNLSLHDMFVRETSANGKVSFWTIHPSANRYLTLDQVFKQQKRPNPELRRNMTIKTELPLGARRKMKPLLPRVSSYLVPIQFPVNQSLVLQPSVKVPLPLAASLMSSELARHSKRVRIAPKVLLAEEGIAPLSSAGPGKEEKLLFGEGFSPLLPVQTIKEEEIQPGEEMPHLARPIKVESPPLEEWPSPAPSFKEESSHSWEDSSQSPTPRPKKSYSGLRSPTRCVSEMLVIQHRERRERSRSRRKQHLLPPCVDEPELLFSEGPSTSRWAAELPFPADSSDPASQLSYSQEVGGPFKTPIKETLPISSTPSKSVLPRTPESWRLTPPAKVGGLDFSPVQTSQGASDPLPDPLGLMDLSTTPLQSAPPLESPQRLLSSEPLDLISVPFGNSSPSDIDVPKPGSPEPQVSGLAANRSLTEGLVLDTMNDSLSKILLDISFPGLDEDPLGPDNINWSQFIPELQ
chain 2: MPPKTPRKTAATAAAAAAEPPAPPPPPPPEEDPEQDSGPEDLPLVRLEFEETEEPDFTALCQKLKIPDHVRERAWLTWEKVSSVDGVLGGYIQKKKELWGICIFIAAVDLDEMSFTFTELQKNIEISVHKFFNLLKEIDTSTKVDNAMSRLLKKYDVLFALFSKLERTCELIYLTQPSSSISTEINSALVLKVSWITFLLAKGEVLQMEDDLVISFQLMLCVLDYFIKLSPPMLLKEPYKTAVIPINGSPRTPRRGQNRSARIAKQLENDTRIIEVLCKEHECNIDEVKNVYFKNFIPFMNSLGLVTSNGLPEVENLSKRYEEIYLKNKDLDARLFLDHDKTLQTDSIDSFETQRTPRKSNLDEEVNVIPPHTPVRTVMNTIQQLMMILNSASDQPSENLISYFNNCTVNPKESILKRVKDIGYIFKEKFAKAVGQGCVEIGSQRYKLGVRLYYRVMESMLKSEEERLSIQNFSKLLNDNIFHMSLLACALEVVMATYSRSTSQNLDSGTDLSFPWILNVLNLKAFDFYKVIESFIKAEGNLTREMIKHLERCEHRIMESLAWLSDSPLFDLIKQSKDREGPTDHLESACPLNLPLQNNHTAADMYLSPVRSPKKKGSTTRVNSTANAETQATSAFQTQKPLKSTSLSLFYKKVYRLAYLRLNTLCERLLSEHPELEHIIWTLFQHTLQNEYELMRDRHLDQIMMCSMYGICKVKNIDLKFKIIVTAYKDLPHAVQETFKRVLIKEEEYDSIIVFYNSVFMQRLKTNILQYASTRPPTLSPIPHIPRSPYKFPSSPLRIPGGNIYISPLKSPYKISEGLPTPTKMTPRSRILVSIGESFGTSEKFQKINQMVCNSDRVLKRSAEGSNPPKPLKKLRFDIEGSDEADGSKHLPGESKFQQKLAEMTSTRTRMQKQKMNDSMDTSNKEEK
B2: T7 tagged FoxM1 wild type (WT) [not stated] / DNMT3b, endogenous [human (endogenous in MCF7 and MDA-MB-453)] (parent)
chain 1: B1 chain 1
chain 2: not shown

Variants of B1 are the subject of one experiment. The experiment can be described thus: co-immunoprecipitation (IP T7, western blot Rb), band intensity given. Particulars: with Retinoblastoma protein (Rb), MDA-MB-453 cells, cell lysates (800 ug). (A western blot detects proteins with antibodies after separation by electrophoresis.)
As for chain 1 T596A, the response was 22.8.
As to chain 1 S715D S724D, the response was determined as 0.09.

The variants in another experiment derive from B2. The experiment can be described thus: co-immunoprecipitation (IP T7, western blot DNMT3b), band intensity given. Particulars: with DNMT3b, MDA-MB-453 cells.
chain 1 S715D S724D: the response is 10.
On the same count and under the same terms, as for chain 1 T596A, the figure is 132.
